Assay results reported in article PMC4200526.

Target: toluene 4-monooxygenase hydroxylase (T4moH), (TmoA-TmoB-TmoE)2, with C-terminally truncated TmoA and TmoE (UniProt Q00456)
Sequence of UniProt Q00456 (Q00456 1-491, chain 1 of 3): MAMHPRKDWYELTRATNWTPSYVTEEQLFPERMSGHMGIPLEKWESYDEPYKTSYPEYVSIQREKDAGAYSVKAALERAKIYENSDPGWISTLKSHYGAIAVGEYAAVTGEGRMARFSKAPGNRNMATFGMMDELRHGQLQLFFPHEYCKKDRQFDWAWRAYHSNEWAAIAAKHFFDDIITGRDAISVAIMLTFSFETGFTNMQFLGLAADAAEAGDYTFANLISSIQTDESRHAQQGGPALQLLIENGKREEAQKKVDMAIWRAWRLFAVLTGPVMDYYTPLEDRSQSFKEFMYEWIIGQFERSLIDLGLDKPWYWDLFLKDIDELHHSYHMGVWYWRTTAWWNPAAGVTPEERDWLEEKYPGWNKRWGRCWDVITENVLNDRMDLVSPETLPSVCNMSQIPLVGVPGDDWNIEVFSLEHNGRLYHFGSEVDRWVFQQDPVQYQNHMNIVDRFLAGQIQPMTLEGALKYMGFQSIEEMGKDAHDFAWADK
Sequence of UniProt Q00456 (Q00457 whole entry, chain 2 of 3, further chain, the tested form may be a part): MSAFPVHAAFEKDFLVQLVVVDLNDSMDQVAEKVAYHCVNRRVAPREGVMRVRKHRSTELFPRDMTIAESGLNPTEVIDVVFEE
Sequence of UniProt Q00456 (Q00460 1-306, chain 3 of 3, further chain): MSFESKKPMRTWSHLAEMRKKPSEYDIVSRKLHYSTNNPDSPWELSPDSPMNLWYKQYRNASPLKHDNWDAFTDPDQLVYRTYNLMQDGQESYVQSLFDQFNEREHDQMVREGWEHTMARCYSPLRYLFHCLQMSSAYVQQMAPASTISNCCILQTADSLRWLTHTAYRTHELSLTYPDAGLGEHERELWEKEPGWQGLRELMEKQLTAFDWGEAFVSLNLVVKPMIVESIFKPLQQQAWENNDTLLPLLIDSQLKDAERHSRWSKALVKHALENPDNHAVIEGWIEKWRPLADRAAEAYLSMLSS

“T4moC, Rieske-type ferredoxin of toluene 4-monooxygenase, Cys7Ser/Cys84Ala/Cys85Ala variant (used for 4P1C) (from UniProt Q00458 8-112) (natural protein)” showed an apparent KM for T4moC in steady-state toluene hydroxylation (4 uM T4moH, 0.4 uM T4moF), before the increase caused by T4moD of 3 µM and an apparent KM for T4moC in steady-state toluene hydroxylation (4 uM T4moH, 0.4 uM T4moF), increased by inhibiting T4moD of 16 µM.
